The record followed here is paper PMC3001049.

The target in data set [1] is T1, XPA (human, UniProt P23025 1-273). Nature of the data set: photocrosslinking.
For data set [2], the target named is T1, XPA. Nature of the data set: photocrosslinking. The source holds these as a separate data set.

Where two headings read alike, the source gives them in different places.

T1 sequence (P23025 whole entry): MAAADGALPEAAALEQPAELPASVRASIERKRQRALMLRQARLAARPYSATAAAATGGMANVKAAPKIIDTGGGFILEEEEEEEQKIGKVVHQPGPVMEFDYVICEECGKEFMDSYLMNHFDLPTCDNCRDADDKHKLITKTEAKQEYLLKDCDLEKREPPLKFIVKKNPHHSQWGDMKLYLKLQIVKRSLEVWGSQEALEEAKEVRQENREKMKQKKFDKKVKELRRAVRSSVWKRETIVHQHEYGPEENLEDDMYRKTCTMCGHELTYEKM

B1: damaged duplex Fg/4 (dsDNA)
DNA 1: GTCGTTCGGAAGACCCTGACGTTGCCCAACTTAATCGCCTCGCCATAG
DNA 2: CTATGGCGAGGCGATTAAGTTGGGCAACGTCAGGGTCTTCCGAACGAC
modifications: strand 1 T23 = Flu-dUMP; strand 2 T30 = 5-iodo-dUMP
Take B1: the binding result in the data set with XPA [1] is listed as “binds”.

B2: damaged duplex FI3/N (dsDNA)
DNA 1: GTCGTTCGGAAGACCCTGACGTTACCCAACTTAATCGCCTCGCCATAG
DNA 2: CTATGGCGAGGCGATTAAGTTGGGTAACGTCAGGGTCTTCCGAACGAC
modifications: strand 1 T17 = 5-iodo-dUMP, T22 = Flu-dUMP
Consider B2, for which the binding result in the data set with XPA [2] is reported as “binds”.
